This is an account of results in the Immune Epitope Database (IEDB).

Where only a bound is given, the exact number is not on record here.

Test [1] concerns the target HLA-A*03:01. In words: IEDB peptide-MHC binding, purified MHC/competitive/fluorescence; ≥ and ≤ were set here for values at or beyond the usual limits of such assays.
For the next test, the target named is HLA-A*11:01. The test is described as above.
For test [2], the target named is HLA-A*02:01. Described as above.
Another test addresses HLA-A*24:02. The description is as above. The note with it: source organism: Zaire ebolavirus.
A further test addresses HLA-B*15:01. The test is described as above.
In another test the target is HLA-A*02:03. The experiment in a line: IEDB peptide-MHC binding, purified MHC/competitive/radioactivity; filed as Kd, often an IC50 or EC50 that approximates it; ≥ and ≤ were set here for values at or beyond the usual limits of such assays.
For another test, the target named is HLA-A*02:06. The description is as above.
A further test concerns the target HLA-A*02:17. Described as above.
Test [3] deals with HLA-A*02:01. Described as above.
A further test addresses HLA-A*68:02. The description is as above.
Test [4] addresses HLA-A*02:01. In words: IEDB peptide-MHC binding, purified MHC/direct/fluorescence; filed as Kd, often an IC50 or EC50 that approximates it; ≥ and ≤ were set here for values at or beyond the usual limits of such assays. The note with it: source organism: Reston ebolavirus - Reston.
The target of a further test is HLA-A*26:01. The experiment in a line: IEDB peptide-MHC binding, purified MHC/competitive/fluorescence; filed as Kd, often an IC50 or EC50 that approximates it; ≥ and ≤ were set here for values at or beyond the usual limits of such assays. The following applies: source organism: Reston ebolavirus - Reston (1989).
Another test addresses HLA-B*18:01. The test is described as above. The note with it: source organism: Reston ebolavirus - Reston (1989).
The target of a further test is HLA-B*27:03. The test is described as above. The note with it: source organism: Reston ebolavirus - Reston (1989).
The target in the next test is HLA-B*39:01. The description is as above. The following applies: source organism: Reston ebolavirus - Reston (1989).
Another test has as its target HLA-B*46:01. The description is as above. The note with it: source organism: Reston ebolavirus - Reston (1989).
Another test addresses HLA-B*51:01. The description is as above. The following applies: source organism: Reston ebolavirus - Reston (1989).
The next test addresses HLA-B*57:01. The test is described as above. The following applies: source organism: Reston ebolavirus - Reston (1989).
Test [5] concerns the target HLA-A*03:01. The description is as above.
The target of another test is HLA-A*02:02. The experiment in a line: IEDB peptide-MHC binding, purified MHC/competitive/radioactivity; filed as Kd, often an IC50 or EC50 that approximates it; ≥ and ≤ were set here for values at or beyond the usual limits of such assays. The note with it: source organism: Trypanosoma cruzi.
Another test addresses HLA-B*07:02. Described as above. The following applies: source organism: Dengue virus 2 Jamaica/1409/1983.
Where [6] appears, read: source organism: Zaire ebolavirus.
[7] abbreviates: source organism: Dengue virus 3 Martinique/1243/1999.
Setting [8] is: source organism: Dengue virus 2 Jamaica/1409/1983.
Setting [9] is: source organism: Vaccinia virus.
The mark [10] stands for this setting: source organism: Dengue virus 4 Philippines/H241/1956.
Where [11] appears, read: source organism: Dengue virus 3 Sri Lanka/1266/2000.
[12] abbreviates: source organism: Trypanosoma cruzi.
Where [13] appears, read: source organism: Dengue virus 1 Brazil/97-11/1997.

Regarding LQLPRDRFK, the IC50 in the test with HLA-A*03:01 [1] (setting [6]) worked out at 5420 nM; with HLA-A*11:01 (setting [6]), 1760 nM.

Regarding VAGLITGGR, the results for the IC50 with HLA-A*02:01 [2] (setting [6]), with HLA-A*03:01 [1] (setting [6]) and in the test with HLA-A*11:01 (setting [6]) were no less than 655000 nM, no less than 104000 nM and 26100 nM, respectively.

For QQTNAMVTL, the IC50 with HLA-A*02:01 [2] (setting [6]) is 38500 nM; in the test with HLA-A*24:02, 59100 nM; with HLA-B*15:01 (setting [6]), no less than 76000 nM.

Regarding VIFILLMLV, the Kd turned out to be 171 nM in the test with HLA-A*02:03 (setting [7]), 2350 nM in the test with HLA-A*02:06 (setting [7]) and 914 nM with HLA-A*02:17 (source organism: Dengue virus 3 China/80-2/1980).

For the sequence LLILCVTQV, the results for the Kd in the test with HLA-A*02:01 [3] (setting [8]), in the test with HLA-A*02:03 (setting [8]) and with HLA-A*02:17 (setting [8]) were 27.2 nM, 7.56 nM and 5970 nM, respectively.

With QTNAMVTLR, the IC50 is 16200 nM in the test with HLA-A*03:01 [1] (setting [6]) and 1200 nM with HLA-A*11:01 (setting [6]).

In the case of LFGIKCIKK, the IC50 in the test with HLA-A*03:01 [1] (setting [9]) was 31700 nM; with HLA-A*11:01 (setting [9]), 8170 nM.

SKRERQLAK gave an IC50 with HLA-A*03:01 [1] (source organism: Vaccinia virus Copenhagen) of 30400 nM.

On to LAIPPTAGV, for which the Kd with HLA-A*68:02 (setting [7]) is 3.16 nM.

For the sequence CAGDFAFHK, the IC50 with HLA-A*03:01 [1] (setting [6]) is 63900 nM; with HLA-A*11:01 (setting [6]), 1390 nM.

Regarding TLIASLVMLL, the results for the Kd with HLA-A*02:01 [3] (setting [10]), with HLA-A*02:03 (setting [10]) and with HLA-A*02:17 (setting [10]) were 49.4 nM, 28.6 nM and 57.9 nM, respectively.

Turning to LIMEFNSLL, the Kd in the test with HLA-A*02:01 [4] is 5.2 nM; in the test with HLA-A*26:01, no less than 20000 nM; in the test with HLA-B*18:01, no less than 20000 nM; with HLA-B*27:03, no less than 20000 nM; with HLA-B*39:01, no less than 20000 nM; in the test with HLA-B*46:01, no less than 20000 nM. Besides, the Kd with HLA-B*51:01 and with HLA-B*57:01 was no less than 20000 nM in each case.

CLRIPMTDH showed a dissociation constant (Kd) in the test with HLA-A*03:01 [5] (source organism: Listeria monocytogenes EGD-e) of no less than 20000 nM.

As to RLITVNPIV, the Kd with HLA-A*02:03 (setting [8]) was determined as 62.7 nM; in the test with HLA-A*02:17 (setting [8]) it was 621 nM.

In the case of CLMMILPAAL, the Kd in the test with HLA-A*02:01 [3] (setting [11]) came to 15.4 nM; with HLA-A*02:03 (setting [11]), 39 nM; with HLA-A*02:17 (setting [11]), 170 nM.

Take LLGLWGFAAL: the Kd with HLA-A*02:01 [3] (setting [12]) is 222 nM; with HLA-A*02:02 it was 28.2 nM; with HLA-A*02:03 (setting [12]) it was 36 nM; in the test with HLA-A*02:06 (setting [12]), 466 nM; with HLA-A*68:02 (setting [12]) it was no less than 125000 nM.

With VLWEGGHDL, the dissociation constant (Kd) was 14.3 nM with HLA-A*02:01 [3] (setting [10]) and 453 nM in the test with HLA-A*02:17 (setting [10]).

In the case of QVPKLLLWF, the IC50 is 2060 nM with HLA-A*02:01 [2] (source organism: Variola virus) and no less than 371000 nM with HLA-B*15:01 (source organism: Variola virus).

In turn, MMYTVSLGH came in with a Kd with HLA-A*03:01 [5] (source organism: Vibrio parahaemolyticus AQ3810) of 1.2 nM.

The sequence MVTRFESLK yielded a Kd in the test with HLA-A*03:01 [5] (source organism: Influenza A virus (A/Swine/Minnesota/55551/2000(H1N2))) of 163 nM.

Consider QVFGTAYGV, for which the Kd is 7.26 nM with HLA-A*02:06 (setting [13]) and 0.95 nM in the test with HLA-A*68:02 (setting [13]).

Consider KLSLTKLFS, for which the half-inhibitory concentration (IC50) with HLA-A*02:01 [2] (source organism: Variola virus) is 2940 nM; with HLA-A*03:01 [1] (source organism: Variola virus), 33600 nM.

KVHAVLTEK had a Kd with HLA-A*03:01 [5] (source organism: Vibrio parahaemolyticus K5030) of 20.6 nM.

Regarding VQRQIQVHA, the results for the IC50 with HLA-A*02:01 [2] (setting [6]) and in the test with HLA-B*15:01 (setting [6]) were 45500 nM and 13500 nM, respectively.

As to MVSILASSL, the Kd was determined as 134 nM in the test with HLA-A*68:02 (setting [8]) and 1010 nM with HLA-B*07:02.

As a reminder, the IC50 is the concentration that gives 50% inhibition. By Kd is commonly meant the concentration at which binding is half-saturated.
